Source: PMC4364296

Target: T1, His-SlmA/SBS (E. coli), P0C093
T1 chain: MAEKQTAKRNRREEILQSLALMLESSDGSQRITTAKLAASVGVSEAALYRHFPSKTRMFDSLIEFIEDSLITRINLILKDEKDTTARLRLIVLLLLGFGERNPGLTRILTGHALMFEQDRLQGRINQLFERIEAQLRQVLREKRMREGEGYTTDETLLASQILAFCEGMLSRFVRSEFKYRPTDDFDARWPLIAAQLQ
Test: BLI
Settings: remark: other sources report otherwise

- Kd: 82 µM
B1: FtsZ-360, P0A9A6 1-360 (domain or fragment)
chain: MFEPMELTNDAVIKVIGVGGGGGNAVEHMVRERIEGVEFFAVNTDAQALRKTAVGQTIQIGSGITKGLGAGANPEVGRNAADEDRDALRAALEGADMVFIAAGMGGGTGTGAAPVVAEVAKDLGILTVAVVTKPFNFEGKKRMAFAEQGITELSKHVDSLITIPNDKLLKVLGRGISLLDAFGAANDVLKGAVQGIAELITRPGLMNVDFADVRTVMSEMGYAMMGSGVASGEDRAEEAAEMAISSPLLEDIDLSGARGVLVNITAGFDLRLDEFETVGNTIRAFASDNATVVIGTSLDPDMNDELRVTVVATGIGMDKRPEITLVTNKQVQQPVMDRYQQHGMAPLTQEQKPVAKVVND
